Measured values published in US10117953B2, “Antibody drug conjugates” (Novartis AG, priority 2013, dated 2018).

B1: 9P3: hybridoma derived anti-cKIT antibody; VH SEQ ID NO.9, VL SEQ ID NO.18 (antibody, V domains shown)
VH: EVRLVESEGGLVQPRSSMKLSCTASGFTFSDYYMAWVRQVPEKGLEWVANINYDGSSTYYLDSLKSRFIISRDNAKNILYLQMSSLKSEDTATYYCARGDYYGTTYWYFDVWGTGTTVTVSS
VL: DIQMTQTTSSLSASLGDRVTISCRASQDISNYLNWYQQKPDGTVKLLIYYTSRLQSGVPSRFSGSGSGTDYSLTISNLEQEDIATYFCQQGKKLWSFGGGTKLEIKR

Assays:
Uke-1 cells = assay: ADCC activity in vitro (Calcein release, NK3.3 effector cells); format: cell-based, human; settings: effector to target ratio 20 to 1
Experimental: In brief, Uke-1 cells were stained with Calcein acetoxy-methyl ester (Calcein-AM; Sigma-Aldrich catalog #17783-5MG, St. Louis, Mo.), washed twice, pipetted into a 96-well microtiterplate (96 well, U-bottomed, clear plastic; Corning Costar, catalog #650 160, Tewksbury, Mass.) at a concentration of 5000 cells per well and pre-incubated for 10 min with a serial dilution of the above mentioned antibodies and proteins (from 50,000 to 0.003 μg per ml) before adding the effector NK3.3 cells for 1 hour in an effector to target ratio of 20 to 1. In order to calculate the antibody specific lysis of the target cells, a parallel incubation of target cells only without antibody or effector cells served as a baseline and negative control, whereas the positive control or maximal lysis or hundred percent specific lysis was determined by lysis of target cells only with a 1% Triton-X 100 solution. […] Following a co-incubation of target and effector cells, the microtiterplate was centrifuged and an aliquot of the supernatant fluid was transferred to another microtiterplate (96 well, flat-bottomed, black with clear bottom; Corning Costar, catalog #3904, Tewksbury, Mass.) and the concentration of free Calcein in solution was determined with a fluorescence counter (Victor 3® multilabel counter, Perkin Elmer, Waltham, Mass.).

[1] = target: T1, cKIT extra-cellular domain (SEQ ID NO:160) (Homo sapiens, UniProt P10721); assay: Epitope mapping by deuterium exchange mass spectrometry (HDx-MS); format: binding; settings: Region 1 residues 109-119, Region 2 residues 185-196
T1 construct: LENGTH: 503 amino acids; made in house; host or cells: HEK293 derived cell lines (293FS), transient transfection
T1 sequence (P10721 with tags, fused parts or gaps isoform P10721-2): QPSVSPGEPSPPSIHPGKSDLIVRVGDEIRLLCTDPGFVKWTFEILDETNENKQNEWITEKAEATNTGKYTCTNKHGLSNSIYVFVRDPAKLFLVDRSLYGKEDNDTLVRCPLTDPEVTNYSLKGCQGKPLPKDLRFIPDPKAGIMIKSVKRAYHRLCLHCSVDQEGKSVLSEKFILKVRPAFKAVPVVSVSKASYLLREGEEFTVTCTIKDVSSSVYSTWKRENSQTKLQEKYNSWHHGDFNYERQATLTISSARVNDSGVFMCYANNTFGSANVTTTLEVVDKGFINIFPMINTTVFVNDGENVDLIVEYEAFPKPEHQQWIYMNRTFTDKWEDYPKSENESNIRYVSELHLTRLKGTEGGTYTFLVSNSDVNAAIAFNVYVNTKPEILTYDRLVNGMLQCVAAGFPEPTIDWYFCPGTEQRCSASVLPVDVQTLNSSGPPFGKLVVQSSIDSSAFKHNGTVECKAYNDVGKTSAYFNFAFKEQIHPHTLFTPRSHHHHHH
Experimental: In these experiments, the deuterium uptake of cKIT extra-cellular domain (SEQ ID NO:160, see below) was measured in the absence and presence of a therapeutic mAb, 9P3. Regions in cKIT that show a decrease in deuterium uptake upon binding of the antibody are likely to be involved in the epitope; however, due to the nature of the measurement it is also possible to detect changes remote from the direct binding site (allosteric effects). Usually, the regions that have the greatest amount of protection are involved in direct binding although this may not always be the case. In order to delineate direct binding events from allosteric effects orthogonal measurements (e. g. X-ray crystallography, alanine mutagenesis) are necessary.
The cKIT epitope mapping experiments are performed on a Waters Synapt® G2 HDx-MS platform, which includes LEAP® robot system, nanoACQUITY® UPLC System, and Synapt® G2 mass spectrometer. In this method, triplicate control experiments are carried out as follows. 300 pmol (1.4 mg/ml) of cKIT antigen is diluted into 110 ul of 95% deuterated PBS buffer (pH 7.4) and incubates at room temperature on a bench rotator for 25 minutes (% D=85.5%). Deuterium exchange is quenched by 1:1 dilution with cold quench buffer (6M Urea and 1M TCEP pH=2.5) on ice for 5 min. […] The sample is analyzed using the same on-line pepsin digestion/LC-MS setup as the control experiment.

[2] = tested on: GIST T1 subcutaneous tumor xenograft; assay: Efficacy of murine 9P3 ADCs, MCC-DM1 vs SPDB-DM4; format: in vivo, mouse; settings: single i.v. dose 10 mg/kg, unconjugated antibody

Molecule	ADCC (Uke-1 cells)	epitope (regions protected from deuterium exchange) [1]	antitumor efficacy [2]
MabCampath [reference compound]	mediated ADCC killing of the target cells	–	–
B1	–	discontinuous epitope that is remote from the SCF binding sites	Neither the control non-specific IgG1 ADCs nor the unconjugated 9P3 were efficacious
